In publication PMC10434240, “An Atypical F-Actin Capping Protein Modulates Cytoskeleton Behaviors Crucial for Trichomonas vaginalis Colonization” (Microbiology Spectrum, 2023):
Where a chain is given by its changes, count along the chain named.

B1: Alexa Fluor 555-His-TvFACPα (natural protein)
chain: MSESENIKIIKTFLANAPPGEYEQCTAALRSIVNDEDLINRARSETLKTWAEEECIVVDVEDHKVIICKEACQRDGIYVDPVTSSLITYDFESRIATPIGDQANMSDFAKELQEELTAYAKNAYKENAAAGVYDTNNGIVIVLRGSSISLKNFRTGKTVAKYTLSKSGSLEGKIVSIQHFFEKGNAVCQHDGDCNTTCSFGDAKSVVKAIRTFEDEWLADYKTTLEKIGTNVLFQLRRKFPYSKQKINWQQEITVGGGMKC
modifications: Alexa Fluor 555 maleimide label (residue not stated)
notes: T. vaginalis F-actin capping protein subunit α (TvFACPα), TVAG_470230, 267 amino acids; m6 after dye labelling; source: recombinant from pET28-His-TvFACPα, purified, labelled with Alexa Fluor 555 maleimide
B2: HA-TvFACPα (natural protein)
chain: B1 chain
notes: T. vaginalis F-actin capping protein subunit α (TvFACPα), TVAG_470230, 267 amino acids; source: transgenic T. vaginalis TH17 trophozoites (Flp-HA-TvFACPα plasmid), overexpressed, in lysate
B3: α-actin (endogenous T. vaginalis) (natural protein)
chain: not shown
notes: T. vaginalis α-actin detected by anti-α-actin antibody; other actin genes of the parasite may be detected too; also called F-actin; TvActin; source: endogenous, T. vaginalis TH17 lysate

What was measured:
[1] = target: T1, tagless recombinant TvActin (rTvActin) (Trichomonas vaginalis, UniProt P90623 1-376); test: TIRF microscopy; 6 μM G-rTvActin (10% Alexa Fluor 488-labelled) polymerising in TIRF buffer on NEM-myosin II-coated flow cell with 300 nM His-TvFACPα; Alexa Fluor 555-His-TvFACPα seen at the barbed end; conditions: both partners purified
T1 construct: T. vaginalis α-actin (TvActin), TVAG_337240; Monomeric (G-) in G-buffer, polymerised (F-) in F-buffer; the assay's format tells which; 10% pyrene-labelled in the pyrene assay and 10% Alexa Fluor 488-labelled in TIRF microscopy; also called G-rTvActin; F-rTvActin; source: E. coli BL21, GST-TvActin cleaved with thrombin, purified (heparin-Sepharose, Sephacryl S-300 gel filtration)

[2] = target: B3; test: co-sedimentation; actin fractionation of trophozoite lysates (Cytoskeleton Inc. kit): 100,000 × g for 1 h, F-actin and associated proteins in the pellet; Western blotting; nontransgenic and transgenic TH17, flagellate and amoeboid forms, DMSO or TBB, T1 isolate; conditions: partners not purified
[3] = target: T2, HA-TvFACPα(S2A) (Trichomonas vaginalis, UniProt A2FE30 1-261, S2A); test: co-IP; anti-HA agarose beads on lysates of TH17 trophozoites overexpressing HA-TvFACPα or its mutants (1% Triton X-100, 5 mM EDTA in TBS, 4°C overnight); Western blotting for α-actin and α-actinin; also after DMSO or TBB (CKII inhibitor) treatment; conditions: partners not purified
T2 construct: T. vaginalis F-actin capping protein subunit α (TvFACPα), TVAG_470230; source: transgenic T. vaginalis TH17 trophozoites (Flp-HA-TvFACPα(S2A) plasmid), overexpressed, in lysate
T2 sequence: B1 chain with S2A

B1
binding result [1]: binds

B2
fold change of cosedimented level against endogenous TvFACPα in the nontransfectant [2]: ~2 fold

B3
fold change of coimmunoprecipitated α-actin signal against HA-TvFACPα [3]: 3 fold
